Source: patent US6979727B2, “Recombinant conglutinin and producing method thereof” (Fuso Pharmaceutical Industries, Ltd., priority 1995, dated 2005)

Columns and labels:
[1] = target: T1, Recombinant Conglutinin (Bos taurus, UniProt P23805); assay: Sugar inhibition of binding to mannan-coated plates (ELISA)
T1 sequence (P23805 211-371): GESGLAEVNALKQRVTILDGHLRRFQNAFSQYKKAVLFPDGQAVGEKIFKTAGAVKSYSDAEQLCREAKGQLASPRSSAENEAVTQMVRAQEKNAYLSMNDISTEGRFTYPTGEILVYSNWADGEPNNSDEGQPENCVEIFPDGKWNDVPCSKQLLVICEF

[2] = target: iC3b on sheep erythrocyte cells (horse (from fresh horse serum)); assay: cell-based or functional assay
[3] = test system: Hemagglutinin (HA); conditions: Table 4, Western blotting
[4] = test system: Influenza A viruses; assay type: cell-based, Influenza A virus
[5] = test system: Influenza A viruses; assay: Neutralization activity of collectins (method of Example 6); assay type: cell-based, Influenza A virus
[6] = test system: Influenza A viruses; assay: HI activity of collectins (method of Example 5); assay type: cell-based, Influenza A virus; conditions: Table 4
[7] = test system: A/Ibaraki/1/90(H3N2); assay: Neutralization activities in MDCK cells, PAP staining; assay type: cell-based, Influenza A virus
[8] = test system: sheep erythrocyte cells with iC3b; assay: Conglutination activities, microtiter plate assay system; assay type: cell-based; conditions: 1% sheep erythrocyte cells with iC3b, 37° C., veronal buffer
Experimental: Conglutination activities of the recombinant conglutinin and the native conglutinin were evaluated by Microtiter plate assay system. Sheep erythrocyte cells with iC3b were prepared according to the method of Wakamiya et al., (Biochem. Biophys. Res. Comm., Vol. 187, pp. 1270-1278, 1992). Namely, 1% sheep erythrocyte cells with iC3b were prepared by priming with a mixture of ten-fold diluted fresh horse serum and equivalent amount of anti-Forssmann antibody, and incubated at 37° C. for ten minutes.
50 μl of 1% sheep erythrocyte cells with iC3b and 50 μl of the recombinant conglutinin or 50 μl of the native conglutinin was added to the raw veronal buffer or the veronal buffer containing 30 mM N-acetylglucosamine. Then, they were incubated at 37° C. and the conglutination activities thereon were detected. The lowest concentration of the proteins to cause agglutination is regarded as titer of conglutination, then the results are shown in FIG. 8. In FIG. 8, Lane A is the native conglutinin, Lane B is the recombinant conglutinin and Lane C is the recombinant conglutinin containing 30 mM N-acetylglucosamine. Titer of conglutination on the native conglutinin was 0.16 μg/ml, while that of the recombinant conglutinin was 1.3-2.5 μg/ml.

[9] = test system: A/Adachi/1/57(H2N2); assay type: cell-based, Influenza A virus
[10] = test system: A/Ibaraki/1/90(H3N2); assay: Hemagglutination Inhibition (HI) with chick's erythrocytes; assay type: cell-based, Influenza A virus
[11] = test system: A/Suita/1/89(H1N1); assay: as above; assay type: cell-based, Influenza A virus

`C[C@@H](O)[C@H](O)[C@H](O)[C@@H](O)C=O` [D-Fucose] gave an IC50 [1] of 55.3 mM.

With `O=C[C@@H](O)[C@@H](O)[C@H](O)[C@H](O)CO` [D-Mannose] the IC50 [1] was 12.3 mM.

Molecule `O=C[C@H](O)[C@@H](O)[C@@H](O)[C@H](O)CO` [Galactose] has an IC50 [1] of 46.8 mM.

Molecule `C[C@H](O)[C@@H](O)[C@@H](O)[C@H](O)C=O` [L-Fucose] has an IC50 [1] of 37.8 mM.

For `OC[C@H]1O[C@@H](O[C@H]2[C@H](O)[C@@H](O)C(O)O[C@@H]2CO)[C@H](O)[C@@H](O)[C@H]1O` (stereo partly drawn) [Lactose], the IC50 [1] was over 100 mM.

Molecule `OC[C@H]1O[C@H](O[C@H]2[C@H](O)[C@@H](O)[C@H](O)O[C@@H]2CO)[C@H](O)[C@@H](O)[C@@H]1O` [Maltose] has an IC50 [1] of 25.8 mM.

Work on `CC(=O)N[C@H]1C(O)O[C@H](CO)[C@@H](O)[C@@H]1O` (stereo partly drawn) [N-Acetyl-D-Glucosamine] yielded an IC50 [1] of 0.65 mM.

For `CC(=O)N[C@@H]1C(O)O[C@H](CO)[C@@H](O)[C@@H]1O` (stereo partly drawn) [N-Acetyl-D-Mannosamine], the IC50 [1] was 26.6 mM.

In the case of “Native bovine conglutinin (from UniProt P23805 21-371)”, the Titer of conglutination (lowest concentration of the proteins to cause agglutination) [2] is reported as 0.16 µg/mL.

“native hMBP: native human mannan-binding protein (hMBP)” was tested, and the “HA Binding” value [3] was “−”, the “Present Method” value [4] was “+” and the “Viral Growth Inhibition Activity (Minimum Protein Concentration)” value [4] was 0.05 µg/mL. For the same molecule, the “area of the infected focus / viral growth” value ([4]; 0, 0.25 and 0.5 μg/ml, three days, MDCK cells (FIG. 14)) was “reduced the area of the infected focus in a dose-dependent manner”, the “Viral Growth Inhibition Activity” value ([4]; Table 6, class symbol) was “+” and the “Neutralization Activity (Minimum Protein Concentration)” value [5] was over 5 µg/mL. For the same molecule, the “Neutralization Activity” value ([5]; Table 4) was “−”, the “Neutralization Activity” value ([5]; Table 5, class symbol) was “−” and the “HI Activity” value [6] was “+”.

B1: Human Surfactant Protein (hSP-D) Native: native human surfactant protein D (protein, UniProt P35247 21-375, looked up)
Pulmonary …: AEMKTYSHRTMPSACTLVMCSSVESGLPGRDGRDGREGPRGEKGDPGLPGAAGQAGMPGQAGPVGPKGDNGSVGEPGPKGDTGPSGPPGPPGVPGPAGREGPLGKQGNIGPQGKPGPKGEAGPKGEVGAPGMQGSAGARGLAGPKGERGVPGERGVPGNTGAAGSAGAMGPQGSPGARGPPGLKGDKGIPGDKGAKGESGLPDVASLRQQVEALQGQVQHLQAAFSQYKKVELFPNGQSVGEKIFKTAGFVKPFTEAQLLCTQAGGQLASPRSAAENAALQQLVVAKNEAAFLSMTDSKTEGKFTYPTGESLVYSNWAPGEPNDDGGSEDCVEIFTNGKWNDRACGEKRLVVCEF
In the case of B1, the “HA Binding” value [3] is reported as “+”, the “Present Method” value [4] is reported as “−” and the “Neutralization Activity” value ([5]; Table 4) is reported as “+”. For the same molecule, the “HI Activity” value [6] was “+”.

B2: Human Surfactant Protein (hSP-D) Recombinant: recombinant human surfactant protein D (protein, UniProt P35247 21-375, looked up)
Pulmonary …: B1 Pulmonary …
With B2 the “Present Method” value [4] was “−”, the “Neutralization Activity” value ([5]; Table 4) was “−” and the “HI Activity” value [6] was “−”.

B3: Native Conglutinin: animal lectin of the calcium-dependent mammalian C-type lectin family existing in bovine serum (protein, UniProt P23805 21-371, looked up)
Conglutinin: AEMTTFSQKILANACTLVMCSPLESGLPGHDGQDGRECPHGEKGDPGSPGPAGRAGRPGWVGPIGPKGDNGFVGEPGPKGDTGPRGPPGMPGPAGREGPSGKQGSMGPPGTPGPKGETGPKGGVGAPGIQGFPGPSGLKGEKGAPGETGAPGRAGVTGPSGAIGPQGPSGARGPPGLKGDRGDPGETGAKGESGLAEVNALKQRVTILDGHLRRFQNAFSQYKKAVLFPDGQAVGEKIFKTAGAVKSYSDAEQLCREAKGQLASPRSSAENEAVTQMVRAQEKNAYLSMNDISTEGRFTYPTGEILVYSNWADGEPNNSDEGQPENCVEIFPDGKWNDVPCSKQLLVICEF
With B3 the “HA Binding” value [3] was “+”, the “Neutralization Titer (concentration to inhibit half (50%) of the infection)” value [7] was 0.08 µg/mL and the “Titer of conglutination (lowest concentration of the proteins to cause agglutination)” value [8] was 0.16 µg/mL. The “Present Method” value [4] was “−”, the “Expression Concentration on Hemagglutination Inhibition (HI)” value [9] was over 5 µg/mL and the “Expression Concentration on Hemagglutination Inhibition (HI)” value [10] was 0.08 µg/mL. For the same molecule, the “Expression Concentration on Hemagglutination Inhibition (HI)” value [11] was 0.08 µg/mL, the “Neutralization Activity” value ([5]; Table 4) was “+” and the “HI Activity” value [6] was “+”.

B4: Bovine Conglutinin: bovine conglutinin of Table 5; native or recombinant not stated (protein, UniProt P23805 21-371, looked up)
Conglutinin: B3 Conglutinin
In the case of B4, the “Neutralization Activity (Minimum Protein Concentration)” value [5] is reported as 0.09 µg/mL and the “Neutralization Activity” value ([5]; Table 5, class symbol) is reported as “+”.
